Experimental data reported in patent publication US20220048967A1 (published 2022).
Numbered stars: 1 amine (or outer) side, 2 acyl side, 3 side chain; on linkers, the order of the positions; unused ones are H or OH. Square brackets hold non-standard residues; d marks the D form. Side chains are listed from the residue outwards. Ends that are not written are not given here. * marks the point of attachment. C20 diacid = O=C(O)CCCCCCCCCCCCCCCCCCC(=O)*; γGlu = O=C(O)[C@H](CCC(=O)[*:2])N[*:1]; AEEA = NCCOCCOCC(=O)O; Aib = CC(C)(N)C(=O)O

T1: human GIP receptor (human, UniProt P48546 22-466)
T1 sequence (looked up): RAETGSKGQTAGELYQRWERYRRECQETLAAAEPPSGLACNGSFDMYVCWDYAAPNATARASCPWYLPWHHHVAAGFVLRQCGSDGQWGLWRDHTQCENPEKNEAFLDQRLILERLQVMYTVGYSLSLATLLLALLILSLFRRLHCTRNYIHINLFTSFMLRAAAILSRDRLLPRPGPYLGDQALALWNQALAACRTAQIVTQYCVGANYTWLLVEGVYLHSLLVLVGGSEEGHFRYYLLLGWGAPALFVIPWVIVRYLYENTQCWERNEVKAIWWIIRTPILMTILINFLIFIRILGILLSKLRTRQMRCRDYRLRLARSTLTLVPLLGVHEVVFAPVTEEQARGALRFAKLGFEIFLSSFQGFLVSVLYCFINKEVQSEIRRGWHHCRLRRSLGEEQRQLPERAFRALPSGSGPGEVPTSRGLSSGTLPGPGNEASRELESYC


Tests used:
human GLP-1 receptor = human GLP-1 receptor (human, UniProt P43220 24-463); assay: cell-based or functional assay
human GIP receptor = target: T1, human GIP receptor; assay: cell-based or functional assay

Binder | hGLP1R cAMP EC50 ratio (human GLP-1 receptor) | hGLP1R cAMP Rel EC50 (human GLP-1 receptor) [nM] | hGIPR cAMP EC50 ratio (human GIP receptor) | hGIPR cAMP Rel EC50 (human GIP receptor) [nM]
Y[Aib]EGTFTSDYSILLDKIAQ[Aib]AFIEYLIEGGPSK([AEEA-AEEA-γGlu-C20 diacid])GAPPPS-NH2 (N-terminus assumed; SMILES CC[C@H](C)[C@H](NC(=O)[C@H](CCCCN)NC(=O)[C@H](CC(=O)O)NC(=O)[C@H](CC(C)C)NC(=O)[C@H](CC(C)C)NC(=O)[C@@H](NC(=O)[C@H](CO)NC(=O)[C@H](Cc1ccc(O)cc1)NC(=O)[C@H](CC(=O)O)NC(=O)[C@H](CO)NC(=O)[C@@H](NC(=O)[C@H](Cc1ccccc1)NC(=O)[C@@H](NC(=O)CNC(=O)[C@H](CCC(=O)O)NC(=O)C(C)(C)NC(=O)[C@@H](N)Cc1ccc(O)cc1)[C@@H](C)O)[C@@H](C)O)[C@@H](C)CC)C(=O)N[C@@H](C)C(=O)N[C@@H](CCC(N)=O)C(=O)NC(C)(C)C(=O)N[C@@H](C)C(=O)N[C@@H](Cc1ccccc1)C(=O)N[C@H](C(=O)N[C@@H](CCC(=O)O)C(=O)N[C@@H](Cc1ccc(O)cc1)C(=O)N[C@@H](CC(C)C)C(=O)N[C@H](C(=O)N[C@@H](CCC(=O)O)C(=O)NCC(=O)NCC(=O)N1CCC[C@H]1C(=O)N[C@@H](CO)C(=O)N[C@@H](CCCCNC(=O)COCCOCCNC(=O)COCCOCCNC(=O)CC[C@H](NC(=O)CCCCCCCCCCCCCCCCCCC(=O)O)C(=O)O)C(=O)NCC(=O)N[C@@H](C)C(=O)N1CCC[C@H]1C(=O)N1CCC[C@H]1C(=O)N1CCC[C@H]1C(=O)N[C@@H](CO)C(N)=O)[C@@H](C)CC)[C@@H](C)CC) [Example 42] | 0.0471 | 1.45 | 0.897 | 0.161
Y[Aib]EGTFTSDYSILLDKIAQ[Aib]AFIEYLIEGGPSSK([AEEA-AEEA-γGlu-C20 diacid])APPPS-NH2 (N-terminus assumed; SMILES CC[C@H](C)[C@H](NC(=O)[C@H](CCCCN)NC(=O)[C@H](CC(=O)O)NC(=O)[C@H](CC(C)C)NC(=O)[C@H](CC(C)C)NC(=O)[C@@H](NC(=O)[C@H](CO)NC(=O)[C@H](Cc1ccc(O)cc1)NC(=O)[C@H](CC(=O)O)NC(=O)[C@H](CO)NC(=O)[C@@H](NC(=O)[C@H](Cc1ccccc1)NC(=O)[C@@H](NC(=O)CNC(=O)[C@H](CCC(=O)O)NC(=O)C(C)(C)NC(=O)[C@@H](N)Cc1ccc(O)cc1)[C@@H](C)O)[C@@H](C)O)[C@@H](C)CC)C(=O)N[C@@H](C)C(=O)N[C@@H](CCC(N)=O)C(=O)NC(C)(C)C(=O)N[C@@H](C)C(=O)N[C@@H](Cc1ccccc1)C(=O)N[C@H](C(=O)N[C@@H](CCC(=O)O)C(=O)N[C@@H](Cc1ccc(O)cc1)C(=O)N[C@@H](CC(C)C)C(=O)N[C@H](C(=O)N[C@@H](CCC(=O)O)C(=O)NCC(=O)NCC(=O)N1CCC[C@H]1C(=O)N[C@@H](CO)C(=O)N[C@@H](CO)C(=O)N[C@@H](CCCCNC(=O)COCCOCCNC(=O)COCCOCCNC(=O)CC[C@H](NC(=O)CCCCCCCCCCCCCCCCCCC(=O)O)C(=O)O)C(=O)N[C@@H](C)C(=O)N1CCC[C@H]1C(=O)N1CCC[C@H]1C(=O)N1CCC[C@H]1C(=O)N[C@@H](CO)C(N)=O)[C@@H](C)CC)[C@@H](C)CC) [Example 43] | 0.0777 | 0.862 | 1.28 | 0.112
Y[Aib]EGTFTSDYSILLDKIAQ[Aib]AFIEYLIEGGPK([AEEA-AEEA-γGlu-C20 diacid])SGAPPPS-NH2 (N-terminus assumed; SMILES CC[C@H](C)[C@H](NC(=O)[C@H](CCCCN)NC(=O)[C@H](CC(=O)O)NC(=O)[C@H](CC(C)C)NC(=O)[C@H](CC(C)C)NC(=O)[C@@H](NC(=O)[C@H](CO)NC(=O)[C@H](Cc1ccc(O)cc1)NC(=O)[C@H](CC(=O)O)NC(=O)[C@H](CO)NC(=O)[C@@H](NC(=O)[C@H](Cc1ccccc1)NC(=O)[C@@H](NC(=O)CNC(=O)[C@H](CCC(=O)O)NC(=O)C(C)(C)NC(=O)[C@@H](N)Cc1ccc(O)cc1)[C@@H](C)O)[C@@H](C)O)[C@@H](C)CC)C(=O)N[C@@H](C)C(=O)N[C@@H](CCC(N)=O)C(=O)NC(C)(C)C(=O)N[C@@H](C)C(=O)N[C@@H](Cc1ccccc1)C(=O)N[C@H](C(=O)N[C@@H](CCC(=O)O)C(=O)N[C@@H](Cc1ccc(O)cc1)C(=O)N[C@@H](CC(C)C)C(=O)N[C@H](C(=O)N[C@@H](CCC(=O)O)C(=O)NCC(=O)NCC(=O)N1CCC[C@H]1C(=O)N[C@@H](CCCCNC(=O)COCCOCCNC(=O)COCCOCCNC(=O)CC[C@H](NC(=O)CCCCCCCCCCCCCCCCCCC(=O)O)C(=O)O)C(=O)N[C@@H](CO)C(=O)NCC(=O)N[C@@H](C)C(=O)N1CCC[C@H]1C(=O)N1CCC[C@H]1C(=O)N1CCC[C@H]1C(=O)N[C@@H](CO)C(N)=O)[C@@H](C)CC)[C@@H](C)CC) [Example 41] | 0.0637 | 0.96 | 0.637 | 0.229
Y[Aib]EGTFTSDYSILLDKIAQ[Aib]AFIEYLIEGGPSSGK([AEEA-AEEA-γGlu-C20 diacid])PPPS-NH2 (N-terminus assumed; SMILES CC[C@H](C)[C@H](NC(=O)[C@H](CCCCN)NC(=O)[C@H](CC(=O)O)NC(=O)[C@H](CC(C)C)NC(=O)[C@H](CC(C)C)NC(=O)[C@@H](NC(=O)[C@H](CO)NC(=O)[C@H](Cc1ccc(O)cc1)NC(=O)[C@H](CC(=O)O)NC(=O)[C@H](CO)NC(=O)[C@@H](NC(=O)[C@H](Cc1ccccc1)NC(=O)[C@@H](NC(=O)CNC(=O)[C@H](CCC(=O)O)NC(=O)C(C)(C)NC(=O)[C@@H](N)Cc1ccc(O)cc1)[C@@H](C)O)[C@@H](C)O)[C@@H](C)CC)C(=O)N[C@@H](C)C(=O)N[C@@H](CCC(N)=O)C(=O)NC(C)(C)C(=O)N[C@@H](C)C(=O)N[C@@H](Cc1ccccc1)C(=O)N[C@H](C(=O)N[C@@H](CCC(=O)O)C(=O)N[C@@H](Cc1ccc(O)cc1)C(=O)N[C@@H](CC(C)C)C(=O)N[C@H](C(=O)N[C@@H](CCC(=O)O)C(=O)NCC(=O)NCC(=O)N1CCC[C@H]1C(=O)N[C@@H](CO)C(=O)N[C@@H](CO)C(=O)NCC(=O)N[C@@H](CCCCNC(=O)COCCOCCNC(=O)COCCOCCNC(=O)CC[C@H](NC(=O)CCCCCCCCCCCCCCCCCCC(=O)O)C(=O)O)C(=O)N1CCC[C@H]1C(=O)N1CCC[C@H]1C(=O)N1CCC[C@H]1C(=O)N[C@@H](CO)C(N)=O)[C@@H](C)CC)[C@@H](C)CC) [Example 44] | 0.0918 | 0.752 | 1.11 | 0.128
